Assay results taken from publication PMC4084830 (Nature structural & molecular biology, 2013).

Experiments:
[1] = biological target: recombinant mouse glucokinase (GK) isoform 1 (mouse) (UniProt P52792)
glucokinase (GK) = biological target: T1, glucokinase (GK) (Mus musculus, UniProt P52792); assay: Steady-state kinetics of recombinant wild-type mouse glucokinase; type: biochemical; conditions: vs vehicle
T1 sequence (P52792 1-465): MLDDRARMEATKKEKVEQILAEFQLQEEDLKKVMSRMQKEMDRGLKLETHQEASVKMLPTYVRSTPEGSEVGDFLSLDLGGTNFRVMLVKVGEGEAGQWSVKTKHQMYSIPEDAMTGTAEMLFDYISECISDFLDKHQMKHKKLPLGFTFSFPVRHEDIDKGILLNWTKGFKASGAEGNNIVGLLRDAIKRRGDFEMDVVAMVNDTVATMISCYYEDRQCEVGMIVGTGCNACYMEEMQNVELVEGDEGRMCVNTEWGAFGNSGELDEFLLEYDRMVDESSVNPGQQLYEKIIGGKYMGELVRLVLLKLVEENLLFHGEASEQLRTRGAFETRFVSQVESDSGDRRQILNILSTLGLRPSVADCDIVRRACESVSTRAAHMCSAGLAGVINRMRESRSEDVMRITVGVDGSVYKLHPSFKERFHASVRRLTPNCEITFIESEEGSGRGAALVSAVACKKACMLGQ

GK Vmax (% of vehicle), G6PDH-coupled assay with 5 μM SAHB and 7.5 nM GK, 37 °C [1] [% veh.] | increase in Vmax (glucokinase (GK); 5 μM BAD SAHB or 3 μM RO0281675) | Compound | effect on GK kinetic profile (in words) (glucokinase (GK); 5 μM BAD SAHBs and/or 3 μM RO0281675)
89.6 | – | BAD SAHBA (S118L) (peptide) | –
144 | – | BAD SAHBA (S118D) (peptide) | –
– | approximately 40% | CS(=O)(=O)c1ccc([C@@H](CC2CCCC2)C(=O)Nc2nccs2)cc1 [RO0281675] | no significant effect on the Hill coefficient
129 | – | BAD SAHBA (S118pS) (peptide) | –
